Experimental data from patent US20230330254A1, “ANTI-GLP1R ANTIBODY-TETHERED DRUG CONJUGATES COMPRISING GLP1 PEPTIDOMIMETICS AND USES THEREOF” (Regeneron Pharmaceuticals, Inc., priority 2022, published 2023).
Like-named read-outs stand apart in the source and are kept apart here.

Legend:
Test in all cases: cell-based or functional assay
[1] = target: full-length cynomolgus GLP1R on HEK293/CRE-Luc/mfGLP1R cells (cynomolgus) (UniProt F8V479)
Target sequence in this assay (F8V479 entry or part of it): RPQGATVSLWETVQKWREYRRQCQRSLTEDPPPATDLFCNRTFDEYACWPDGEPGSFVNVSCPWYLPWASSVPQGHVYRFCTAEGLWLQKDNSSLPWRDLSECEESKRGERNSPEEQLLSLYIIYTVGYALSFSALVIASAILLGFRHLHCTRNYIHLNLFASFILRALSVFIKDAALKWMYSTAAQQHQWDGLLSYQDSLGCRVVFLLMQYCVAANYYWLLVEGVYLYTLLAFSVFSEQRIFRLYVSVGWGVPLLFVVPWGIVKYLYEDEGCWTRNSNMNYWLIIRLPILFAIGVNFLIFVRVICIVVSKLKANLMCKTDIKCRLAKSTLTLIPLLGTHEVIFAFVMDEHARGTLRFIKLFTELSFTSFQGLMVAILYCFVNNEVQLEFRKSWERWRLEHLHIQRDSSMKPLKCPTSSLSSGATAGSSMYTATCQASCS

[2] = target: full-length human GLP1R on HEK293/CRE-Luc/hGLP1R cells (human) (UniProt P43220)
[3] = target: full-length human glucagon receptor on HEK293/CRE-Luc/hGCGR cells (human) (UniProt P47871)
[4] = target: full-length human glucagon-like peptide 2 receptor on HEK293/CRE-Luc/hGLP2R cells (human) (UniProt O95838)
[5] = target: full-length human GLP1R on HEK293/CRE-Luc/hGLP1R cells (human) (UniProt P43220); remark: listed apart in the source
[6] = target: full-length human glucagon receptor on HEK293/CRE-Luc/hGCGR cells (human) (UniProt P47871); remark: listed apart in the source
[7] = target: full-length human glucagon-like peptide 2 receptor on HEK293/CRE-Luc/hGLP2R cells (human) (UniProt O95838); remark: listed apart in the source
[8] = target: full-length cynomolgus GLP1R on HEK293/CRE-Luc/mfGLP1R cells (cynomolgus) (UniProt F8V479); remark: listed apart in the source
[9] = target: full-length human gastric inhibitory polypeptide receptor on HEK293/CRE-Luc/hGIPR cells (human) (UniProt P48546)
[10] = target: full-length human gastric inhibitory polypeptide receptor on HEK293/CRE-Luc/hGIPR cells (human) (UniProt P48546); remark: listed apart in the source

Sequence of full-length human glucagon receptor on HEK293/CRE-Luc/hGCGR cells (human) (P47871 26-477): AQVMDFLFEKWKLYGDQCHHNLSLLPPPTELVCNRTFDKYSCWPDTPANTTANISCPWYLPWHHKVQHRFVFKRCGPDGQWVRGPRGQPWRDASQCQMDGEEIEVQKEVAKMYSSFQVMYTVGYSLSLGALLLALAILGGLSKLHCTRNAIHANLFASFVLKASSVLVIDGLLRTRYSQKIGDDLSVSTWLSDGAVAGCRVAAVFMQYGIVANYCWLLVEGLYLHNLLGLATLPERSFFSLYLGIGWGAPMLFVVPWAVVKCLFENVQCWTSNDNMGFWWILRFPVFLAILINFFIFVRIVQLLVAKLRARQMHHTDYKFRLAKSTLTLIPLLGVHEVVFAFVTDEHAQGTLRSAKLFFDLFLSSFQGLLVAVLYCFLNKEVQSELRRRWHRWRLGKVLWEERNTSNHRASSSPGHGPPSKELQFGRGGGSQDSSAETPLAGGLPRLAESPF
Sequence of full-length human glucagon-like peptide 2 receptor on HEK293/CRE-Luc/hGLP2R cells (human) (O95838 whole entry): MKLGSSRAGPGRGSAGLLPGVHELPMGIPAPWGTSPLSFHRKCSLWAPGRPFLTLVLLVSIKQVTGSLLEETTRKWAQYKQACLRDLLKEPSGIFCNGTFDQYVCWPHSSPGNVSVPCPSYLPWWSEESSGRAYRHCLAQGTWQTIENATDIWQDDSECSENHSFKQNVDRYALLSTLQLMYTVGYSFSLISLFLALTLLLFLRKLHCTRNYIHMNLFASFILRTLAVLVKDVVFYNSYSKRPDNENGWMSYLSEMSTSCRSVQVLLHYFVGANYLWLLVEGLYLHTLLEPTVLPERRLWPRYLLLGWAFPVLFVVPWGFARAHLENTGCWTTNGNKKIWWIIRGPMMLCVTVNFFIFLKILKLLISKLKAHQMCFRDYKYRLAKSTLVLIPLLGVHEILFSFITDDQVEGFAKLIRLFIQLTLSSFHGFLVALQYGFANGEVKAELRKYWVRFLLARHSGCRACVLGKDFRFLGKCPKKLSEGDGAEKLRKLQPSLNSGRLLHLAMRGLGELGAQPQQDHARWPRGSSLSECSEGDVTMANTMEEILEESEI
Sequence of full-length human GLP1R on HEK293/CRE-Luc/hGLP1R cells (human) (P43220 24-463): as the sequence (F8V479 entry or part of it) above, with N112S, S120F, G202S, V205L, F237L, R241W, V249I counted along it
Sequence of human GLP2 (P01275 146-178 limits assumed): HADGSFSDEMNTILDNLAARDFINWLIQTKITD
Sequence of full-length human gastric inhibitory polypeptide receptor on HEK293/CRE-Luc/hGIPR cells (human) (P48546 22-466): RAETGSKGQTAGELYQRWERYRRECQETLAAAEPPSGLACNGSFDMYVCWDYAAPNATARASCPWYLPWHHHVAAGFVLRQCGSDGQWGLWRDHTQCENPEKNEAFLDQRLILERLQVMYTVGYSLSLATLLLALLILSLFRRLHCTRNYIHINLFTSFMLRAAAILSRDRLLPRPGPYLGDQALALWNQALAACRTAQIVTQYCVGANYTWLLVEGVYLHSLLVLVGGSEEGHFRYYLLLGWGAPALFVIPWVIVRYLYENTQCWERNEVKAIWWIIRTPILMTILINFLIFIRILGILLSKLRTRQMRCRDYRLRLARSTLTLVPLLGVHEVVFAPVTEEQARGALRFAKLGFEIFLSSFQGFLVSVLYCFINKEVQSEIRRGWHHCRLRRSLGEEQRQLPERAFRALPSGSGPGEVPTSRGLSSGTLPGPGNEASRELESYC
Sequence of human GCG (glucagon) (P01275 53-81 limits assumed): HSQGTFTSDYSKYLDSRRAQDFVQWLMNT

| CRE-luc EC50 [1] [nM] | CRE-luc EC50 [2] [nM] | CRE-luc EC50 [3] [nM] | CRE-luc EC50 [4] [nM] | CRE-luc EC50 [5] [nM] | CRE-luc EC50 [6] [nM] | CRE-luc EC50 [7] [nM] | CRE-luc EC50 [8] [nM] | CRE-luc EC50 [9] [nM] | CRE-luc EC50 [10] [nM] | Substance |
| --- | --- | --- | --- | --- | --- | --- | --- | --- | --- | --- |
|  |  |  |  | > 300 | > 300 | > 300 | > 300 | > 300 |  | Isotype control Ab (unconjugated; Q tag none or not stated) (antibody) |
|  |  |  | > 200 |  |  | > 30 |  | > 30 | > 200 | human GCG (glucagon) (from UniProt P01275 53-81) (ligand) |
|  |  | > 200 | > 200 |  | > 30 | > 30 |  | > 30 | > 200 | human GLP1 (reference ligand) (from UniProt P01275 98-128) |

Second part, the substance before the results:

| Substance | CRE-luc EC50 [1] [nM] | CRE-luc EC50 [2] [nM] | CRE-luc EC50 [3] [nM] | CRE-luc EC50 [4] [nM] | CRE-luc EC50 [5] [nM] | CRE-luc EC50 [6] [nM] | CRE-luc EC50 [7] [nM] | CRE-luc EC50 [8] [nM] | CRE-luc EC50 [9] [nM] | CRE-luc EC50 [10] [nM] |
| --- | --- | --- | --- | --- | --- | --- | --- | --- | --- | --- |
| human GIP (from UniProt P09681 52-93) (ligand) | > 200 | > 200 | > 200 | > 200 | > 30 | > 30 | > 30 |  |  |  |
| human GLP2 (from UniProt P01275 146-178) (ligand) | > 200 | > 200 | > 200 |  | > 30 | > 30 |  |  | > 30 | > 200 |
